How the values were obtained:
[1] = biological target: Human FcγRIIA, recombinantly expressed extracellular domain (human) (UniProt P12318); experiment: BIAcore 3000, IgG immobilized, FcγR extracellular domain injected, equilibrium fit to a 1:1 binding isotherm
[2] = biological target: Human FcγRIIB, recombinantly expressed extracellular domain (human) (UniProt P31994); experiment: as above
[3] = biological target: Human FcγRIIIA (V158), recombinantly expressed extracellular domain (human) (UniProt P08637); experiment: as above
[4] = biological target: Mouse FcγRIIB, recombinantly expressed extracellular domain (mouse) (UniProt P08101); experiment: as above
[5] = biological target: Mouse FcγRIII, recombinantly expressed extracellular domain (mouse) (UniProt P08508); experiment: as above
[6] = biological target: Human FcγRI, recombinantly expressed extracellular domain (human) (UniProt P12314); experiment: BIAcore 3000, IgG immobilized, FcγR extracellular domain injected, equilibrium fit to a 1:1 binding isotherm; Fc variant 16C4-235Y
[7] = biological target: Mouse FcγRIV, recombinantly expressed extracellular domain (mouse); experiment: BIAcore 3000, IgG immobilized, FcγR extracellular domain injected, equilibrium fit to a 1:1 binding isotherm
[8] = biological target: Human FcγRI, recombinantly expressed extracellular domain (human) (UniProt P12314); experiment: BIAcore 3000, IgG immobilized, FcγR extracellular domain injected, equilibrium fit to a 1:1 binding isotherm; Fc variant 16C4-235F
[9] = biological target: Human FcγRI, recombinantly expressed extracellular domain (human) (UniProt P12314); experiment: BIAcore 3000, IgG immobilized, FcγR extracellular domain injected, equilibrium fit to a 1:1 binding isotherm; 16C4, parent Fc (no Fc substitution)

Sequence of Human FcγRI, recombinantly expressed extracellular domain (human) (P12314 16-292): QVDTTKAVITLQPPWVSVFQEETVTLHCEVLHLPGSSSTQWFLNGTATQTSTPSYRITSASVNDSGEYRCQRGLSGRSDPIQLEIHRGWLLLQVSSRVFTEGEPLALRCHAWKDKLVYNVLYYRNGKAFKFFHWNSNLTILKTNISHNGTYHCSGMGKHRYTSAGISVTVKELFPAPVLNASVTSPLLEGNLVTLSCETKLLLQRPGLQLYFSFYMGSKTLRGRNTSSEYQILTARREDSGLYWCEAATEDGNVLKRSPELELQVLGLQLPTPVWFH
Sequence of Mouse FcγRIIB, recombinantly expressed extracellular domain (mouse) (P08101 30-210): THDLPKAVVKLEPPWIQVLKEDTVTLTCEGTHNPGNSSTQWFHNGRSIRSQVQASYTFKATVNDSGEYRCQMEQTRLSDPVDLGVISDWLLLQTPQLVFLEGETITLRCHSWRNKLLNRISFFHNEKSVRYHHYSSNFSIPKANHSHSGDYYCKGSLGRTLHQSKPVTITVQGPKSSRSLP
Sequence of Human FcγRIIIA (V158), recombinantly expressed extracellular domain (human) (P08637 17-208 F176V): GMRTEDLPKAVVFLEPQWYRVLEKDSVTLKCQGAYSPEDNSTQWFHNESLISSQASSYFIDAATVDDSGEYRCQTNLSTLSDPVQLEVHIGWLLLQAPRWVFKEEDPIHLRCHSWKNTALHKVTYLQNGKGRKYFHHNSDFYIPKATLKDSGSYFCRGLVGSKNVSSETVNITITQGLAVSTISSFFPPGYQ
Sequence of Mouse FcγRIII, recombinantly expressed extracellular domain (mouse) (P08508 31-215): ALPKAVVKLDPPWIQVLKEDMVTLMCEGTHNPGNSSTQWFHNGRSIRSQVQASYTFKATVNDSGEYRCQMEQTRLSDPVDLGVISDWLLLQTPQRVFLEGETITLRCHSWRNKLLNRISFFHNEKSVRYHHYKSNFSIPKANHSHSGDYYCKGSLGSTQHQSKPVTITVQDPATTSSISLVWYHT
Sequence of Human FcγRIIB, recombinantly expressed extracellular domain (human) (P31994 43-217): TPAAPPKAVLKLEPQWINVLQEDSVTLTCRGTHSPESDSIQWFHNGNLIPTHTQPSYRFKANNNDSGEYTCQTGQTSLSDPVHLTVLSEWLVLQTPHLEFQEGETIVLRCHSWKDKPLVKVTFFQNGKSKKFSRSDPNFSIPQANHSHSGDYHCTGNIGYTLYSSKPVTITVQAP
Sequence of Mouse FcγRIV, recombinantly expressed extracellular domain (mouse) (A0A0B4 entry or part of it limits assumed): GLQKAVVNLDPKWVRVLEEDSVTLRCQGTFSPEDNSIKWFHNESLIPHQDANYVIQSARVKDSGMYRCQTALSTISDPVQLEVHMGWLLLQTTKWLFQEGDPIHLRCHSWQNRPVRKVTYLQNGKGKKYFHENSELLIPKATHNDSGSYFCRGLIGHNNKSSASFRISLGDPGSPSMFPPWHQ
Sequence of Human FcγRIIA, recombinantly expressed extracellular domain (human) (P12318 34-217): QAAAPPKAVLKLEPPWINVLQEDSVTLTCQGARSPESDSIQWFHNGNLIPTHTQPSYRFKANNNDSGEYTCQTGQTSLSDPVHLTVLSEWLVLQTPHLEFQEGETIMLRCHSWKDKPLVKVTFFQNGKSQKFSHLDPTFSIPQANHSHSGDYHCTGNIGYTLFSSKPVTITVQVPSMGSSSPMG

Kd [1] [µM] | Kd [2] [µM] | Kd [3] [µM] | Kd [4] [µM] | Kd [5] [µM] | Kd [6] [µM] | Kd [7] [µM] | Kd [8] [µM] | Kd [9] [µM] | Substance
6.98 | 17.1 | 5.14 | 2.67 | 9.24 | 8.65 | – | – | – | 16C4 Fc variant antibody comprising the L234F/L235Y/P331S amino acid substitutions
6.36 | 6.81 | 4.61 | 2.82 | 10.9 | – | 11.1 | 1.53 | – | 16C4 Fc variant antibody comprising the L234F/L235F/P331S amino acid substitutions
– | 14.5 | 0.574 | 1.47 | 6.36 | – | 0.329 | – | 0.019 | 16C4 affinity matured anti-CD19 IgG antibody
